Laboratory results published in patent US12527862B2, “Bactericidal/permeability increasing protein for use in a method of immunization, preferably as an adjuvant in a method of vaccination” (UNIVERSITÄT REGENSBURG, priority 2018, dated 2026).

Experiments:
[1] = tested on: murine dendritic cells (BMDC); assay: TNFα ELISA in murine dendritic cells (BMDC); format: cell-based; conditions: LPS Ec 10 ng/ml or BPI 100 nM, 18 h, ELISA (FIG. 4A)
Description: Generation of BMDM was carried out similarly to BMDCs; MCSF was used instead of GMSCF for differentiation of BMDM. Cells were re-plated on day 1 of culture and harvested on day 5. On day 1, cells were seeded in new plates and harvested on day 5 for the experiments. Cells were stimulated with LPS Ec (10 ng/ml) or BPI (100 nM) for 18 h before supernatants were collected. TNFα levels were determined by ELISA (OPTEIA™ Murine TNFα ELISA Set, BD Bioscience, Heidelberg, Germany).

BMDCs [2] = assay: Cytokine protein secretion by BMDCs (Luminex); format: cell-based, C57BL/6J mice
Description: All methods mentioned in this example were carried out as described in the preceding examples. Cells were stimulated with Zymosan depleted (Zymd, 5 μg/ml) from Invivogen (San Diego, CA, USA) or (R)-Pam3CSK4 (bLP, 10 nM) from EMC Microcollections GmbH (Tübingen, Germany). Protein secretion analysis was performed using the supernatants.
To quantify the interleukin and chemokine protein-level after stimulation with huBPI, Zymd, and (R)-Pam CSK4, a multiplex-system was used and determined by using the Luminex® technology (Austin, TX, USA). The cytokines were captured with anti-mouse capture-antibodies and detected by biotinylated antibodies specific for the respective protein (Table 3). Protein concentrations were calculated using a reconstituted standard curve of the analyzed proteins (SM039, #LMC4031, Lot #1438354; Thermo Fisher Scientific; Standard Mix 1a, #EPX010-20603-901, Lot #111709101, eBioscience).

BMDCs [3] = assay: Quantitative real-time PCR gene expression in BMDCs; format: cell-based, C57BL/6J mice; conditions: BMDCs stimulated with BPI; rtPCR normalized to HPRT, also microarray (FIGS. 2B and C)
Description: Gene expression analyses using rtPCR were performed 30 min, 1 h, 2 h, 4 h, 8 h, 12 h, 24 h and 48 h after the stimulation.
After stimulation, cells were lysed and RNA was isolated using RNeasyR Mini Kit (#74106, Qiagen). Remaining DNA in the sample was digested using TURBO DNA-free™ Kit (#AM1907, ThermoFisher Scientific). Finally, the RNA concentration was measured with a NanoDrop 1000 (Thermo Scientific). The isolated RNA was transcribed into complementary DNA (cDNA) using the iScript™ª Advanced cDNA Synthesis Kit (#1725038, Bio-Rad).
To analyze altered gene transcription, in particular of genes CXCL10, HPRT, IL-2, IL-6, and IL-12p40, in response to different stimulatory reagents, quantitative real-time PCR (qRT-PCR) was performed using SYBR-Green Master Mix (LightCycler® 480 SYBR Green I Master, #4707516001, Roche). Gene-specific primers synthesized by Thermo Fisher Scientific, Microsynth, Biomers, and Metabion were used. PCR reaction was performed using the HT 7900 Real-Time PCR system (Applied Biosystems). SDS software version 2.4 (Applied Biosystems) was used to analyze the gene expression, which was normalized to the housekeeping gene HPRT. 2^-ΔΔCT method was used to analyze the data.

B1: bactericidal/permeability-increasing protein (protein)
chain: RIKIPDYSDSFKIKHLGKGHYSFYSMDIREFQLPSSQISMVPNVGLKFSISNANIKISGKWKAQKRFLKMSGNFDLSIEGMSISADLKLGSNPTSGKPTITCSSCSSHINSVHVHISKSKVGWLIQLFHKKIESALRNKMNSQVCEKVTNSVSSELQPYFQTLPVMTKIDSVAGINYGLVAPPATTAETLDVQMKGEFYSENHHNPPPFAPPVMEFPAAHDRMVYLGLSDYFFNTAGLVYQEAGVLKMTLRDDMIPKESKFRLTTKFFGTFLPEVAKKFPNMKIQIHVSASTPPHLSVQPTGLTFYPAVDVQAFAVLPNSSLASLFLIGMHTTGSMEVSAESNRLVGELKLDRLLLELKHSNIGPFPVELLQDIMNYIVPILVLPRVNEKLQKGFPLPTPARVQLYNVVLQPHQNFLLFGADVVYK
modifications: labeled with NT647 (Monolith NT Protein Labeling Kit RED-NHS) in the MST experiments
notes: recombinant human BPI, aa32-487 of huBPI with N-terminal HA signal peptide, expressed in HEK293T cells
[1]
  TNFα secretion by dendritic cells: secrete TNFα
BMDCs [2]; BMDCs (FIG. 12)
  IL-4 level: not induced
BMDCs [2]; Luminex, n>7, 4h (FIG. 3)
  IL-2, IL-12p40/p70, and IL-6 protein secretion: increase of IL-2, IL-12p40/p70, and IL-6 protein secretion
BMDCs [2]; Zymd 5 μg/ml, bLP 10 nM, Luminex, n>7, 4h (FIG. 3)
  stimulatory effect on the expression of IL-6 (IL-6 level), BPI vs Zymd vs bLP: comparable
BMDCs [2]; vs Zymd 5 μg/ml and bLP 10 nM, Luminex, n>7, 4h (FIG. 3)
  increase of IL-2 and IL12p40/p70 compared to Zymd and bLP: significantly higher
BMDCs [3]
  CXCL10, IL-2, IL-6, and IL-12p40 mRNA expression: increase of CXCL10, IL-2, IL-6, and IL-12p40 mRNA expression
